Measurements taken from patent publication US20260193376A1 (Novo Nordisk, published 2026).
Residue numbers refer to the chain shown, from its start. Values belong to the binder of their own block, whether it stands above or below them.

Key:
[1] = molecular target: FIX L337A with C-terminal His-tag (human, UniProt P00740 47-461); experiment: SPR (Biacore T200), FIX variant captured via His-tag, 20 µM OA antibody
Procedure: (§1) SPR analyses were carried out on Biacore T200 instruments (Biacore AB, Uppsala, Sweden). For the experiments on the T200 instrument the following conditions were applied: measurements were conducted at a temperature of 25° C. Anti-His antibody at 25 μg/ml (R&D Systems, catalogue #MAB050) was immobilized on a CM5 sensor chip using standard amine coupling chemistry. […] at 25 nM were injected at a flow rate of 10 μl/min for 1 min and were captured via their His-tag by the immobilized anti-His antibody. […] The running buffer used was 20 mM Tris, 150 mM NaCl, 5 mM CaCl₂, 0.05% Tween-20, 10 mg/ml BSA, pH 7.4. This was also used for dilution of anti-FIX antibody and FIX samples. Regeneration of the chip was achieved using 10 mM Glycine pH 2.0. Binding data were analysed according to a 1:1 model using BiaEvaluation 4.1 supplied by the manufacturer (Biacore AB, Uppsala, Sweden).
(§2) where Rmax_FIXvar and Rmax_FIXwt represent capture level (RU) of FIX variant and wild-type FIX, respectively, and where R_{max_Ab,FIX_var} and R_{max_Ab,FIX_wt} represent Rmax (RU) of the 20 μM antibody to captured FIX variant and wild-type FIX, respectively.

[2] = molecular target: FIX R333A with C-terminal His-tag (human, UniProt P00740 47-461); experiment: as above
FIX R333A with C-terminal His-tag, sequence (P00740 other isoform, or with tags, fused parts or gaps R333A R333A limits assumed): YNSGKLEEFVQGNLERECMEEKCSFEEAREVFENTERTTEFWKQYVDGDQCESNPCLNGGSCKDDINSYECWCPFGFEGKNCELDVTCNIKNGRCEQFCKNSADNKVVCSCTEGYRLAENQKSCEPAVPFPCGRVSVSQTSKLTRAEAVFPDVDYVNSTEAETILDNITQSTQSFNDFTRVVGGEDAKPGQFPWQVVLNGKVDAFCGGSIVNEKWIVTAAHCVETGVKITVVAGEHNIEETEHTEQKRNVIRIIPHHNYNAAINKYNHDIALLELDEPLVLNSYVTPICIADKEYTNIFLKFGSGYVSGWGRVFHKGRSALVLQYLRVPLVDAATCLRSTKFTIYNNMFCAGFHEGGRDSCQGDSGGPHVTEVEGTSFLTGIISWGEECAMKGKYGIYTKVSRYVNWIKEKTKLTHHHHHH
Procedure: as §1, §2

[3] = molecular target: FIX R338A with C-terminal His-tag (human, UniProt P00740 47-461); experiment: as above
FIX R338A with C-terminal His-tag, sequence (P00740 other isoform, or with tags, fused parts or gaps R338A R338A limits assumed): as the sequence (P00740 other isoform, or with tags, fused parts or gaps R333A R333A limits assumed) above, with A333R, R338A counted along it
Procedure: as §1, §2

[4] = molecular target: FIX D332A with C-terminal His-tag (human, UniProt P00740 47-461); experiment: as above
FIX D332A with C-terminal His-tag, sequence (P00740 other isoform, or with tags, fused parts or gaps D332A D332A limits assumed): as the sequence (P00740 other isoform, or with tags, fused parts or gaps R333A R333A limits assumed) above, with D332A, A333R counted along it
Procedure: as §1, §2

[5] = molecular target: FIX N346Q with C-terminal His-tag (human, UniProt P00740 47-461); experiment: as above
FIX N346Q with C-terminal His-tag, sequence (P00740 other isoform, or with tags, fused parts or gaps N346Q N346Q limits assumed): as the sequence (P00740 other isoform, or with tags, fused parts or gaps R333A R333A limits assumed) above, with A333R, N346Q counted along it
Procedure: as §1, §2

[6] = molecular target: FIX T335A with C-terminal His-tag (human, UniProt P00740 47-461); experiment: as above
FIX T335A with C-terminal His-tag, sequence (P00740 other isoform, or with tags, fused parts or gaps T335A T335A limits assumed): as the sequence (P00740 other isoform, or with tags, fused parts or gaps R333A R333A limits assumed) above, with A333R, T335A counted along it
Procedure: as §1, §2

[7] = molecular target: FIX K301A with C-terminal His-tag (human, UniProt P00740 47-461); experiment: as above
FIX K301A with C-terminal His-tag, sequence (P00740 other isoform, or with tags, fused parts or gaps K301A K301A limits assumed): as the sequence (P00740 other isoform, or with tags, fused parts or gaps R333A R333A limits assumed) above, with K301A, A333R counted along it
Procedure: as §1, §2

[8] = molecular target: FIX K341E with C-terminal His-tag (human, UniProt P00740 47-461); experiment: as above
FIX K341E with C-terminal His-tag, sequence (P00740 other isoform, or with tags, fused parts or gaps K341E K341E limits assumed): as the sequence (P00740 other isoform, or with tags, fused parts or gaps R333A R333A limits assumed) above, with A333R, K341E counted along it
Procedure: as §1, §2

[9] = molecular target: FIX S339L with C-terminal His-tag (human, UniProt P00740 47-461); experiment: as above
FIX S339L with C-terminal His-tag, sequence (P00740 other isoform, or with tags, fused parts or gaps S339L S339L limits assumed): as the sequence (P00740 other isoform, or with tags, fused parts or gaps R333A R333A limits assumed) above, with A333R, S339L counted along it
Procedure: as §1, §2

[10] = molecular target: FIX K341A with C-terminal His-tag (human, UniProt P00740 47-461); experiment: as above
FIX K341A with C-terminal His-tag, sequence (P00740 other isoform, or with tags, fused parts or gaps K341A K341A limits assumed): as the sequence (P00740 other isoform, or with tags, fused parts or gaps R333A R333A limits assumed) above, with A333R, K341A counted along it
Procedure: as §1, §2

[11] = molecular target: FIX N346A with C-terminal His-tag (human, UniProt P00740 47-461); experiment: as above
FIX N346A with C-terminal His-tag, sequence (P00740 other isoform, or with tags, fused parts or gaps N346A N346A limits assumed): as the sequence (P00740 other isoform, or with tags, fused parts or gaps R333A R333A limits assumed) above, with A333R, N346A counted along it
Procedure: as §1, §2

[12] = molecular target: FIX A334L with C-terminal His-tag (human, UniProt P00740 47-461); experiment: as above
FIX A334L with C-terminal His-tag, sequence (P00740 other isoform, or with tags, fused parts or gaps A334L A334L limits assumed): as the sequence (P00740 other isoform, or with tags, fused parts or gaps R333A R333A limits assumed) above, with A333R, A334L counted along it
Procedure: as §1, §2

[13] = molecular target: FIX T340A with C-terminal His-tag (human, UniProt P00740 47-461); experiment: as above
FIX T340A with C-terminal His-tag, sequence (P00740 other isoform, or with tags, fused parts or gaps T340A T340A limits assumed): as the sequence (P00740 other isoform, or with tags, fused parts or gaps R333A R333A limits assumed) above, with A333R, T340A counted along it
Procedure: as §1, §2

[14] = molecular target: FIX D332S with C-terminal His-tag (human, UniProt P00740 47-461); experiment: as above
FIX D332S with C-terminal His-tag, sequence (P00740 other isoform, or with tags, fused parts or gaps D332S D332S limits assumed): as the sequence (P00740 other isoform, or with tags, fused parts or gaps R333A R333A limits assumed) above, with D332S, A333R counted along it
Procedure: as §1, §2

[15] = molecular target: FIX T343I with C-terminal His-tag (human, UniProt P00740 47-461); experiment: as above
FIX T343I with C-terminal His-tag, sequence (P00740 other isoform, or with tags, fused parts or gaps T343I T343I limits assumed): as the sequence (P00740 other isoform, or with tags, fused parts or gaps R333A R333A limits assumed) above, with A333R, T343I counted along it
Procedure: as §1, §2

[16] = molecular target: FIX T343A with C-terminal His-tag (human, UniProt P00740 47-461); experiment: as above
FIX T343A with C-terminal His-tag, sequence (P00740 other isoform, or with tags, fused parts or gaps T343A T343A limits assumed): as the sequence (P00740 other isoform, or with tags, fused parts or gaps R333A R333A limits assumed) above, with A333R, T343A counted along it
Procedure: as §1, §2

[17] = molecular target: human plasma-derived Factor IXa (human, UniProt P00740 47-191; P00740 227-461); experiment: cell-based or functional assay
human plasma-derived Factor IXa, sequence (P00740 47-191, chain 1 of 2): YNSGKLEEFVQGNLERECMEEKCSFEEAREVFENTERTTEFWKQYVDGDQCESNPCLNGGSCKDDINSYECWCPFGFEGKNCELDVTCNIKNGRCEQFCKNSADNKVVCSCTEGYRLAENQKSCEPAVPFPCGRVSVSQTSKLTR
human plasma-derived Factor IXa, sequence (P00740 227-461, chain 2 of 2): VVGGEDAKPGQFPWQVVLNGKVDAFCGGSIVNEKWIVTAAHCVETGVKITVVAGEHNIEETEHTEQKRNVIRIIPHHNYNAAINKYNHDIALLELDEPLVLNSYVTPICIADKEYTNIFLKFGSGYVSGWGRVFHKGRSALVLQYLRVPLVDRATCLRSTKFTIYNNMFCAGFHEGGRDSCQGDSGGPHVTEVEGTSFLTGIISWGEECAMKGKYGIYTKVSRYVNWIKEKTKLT

[18] = molecular target: T1, wild-type FIX with C-terminal His-tag (human, UniProt P00740 47-461); experiment: SPR (Biacore T200), wild-type FIX captured via His-tag, 20 µM OA antibody (reference)
T1 construct: also called WT
T1 sequence (P00740 other isoform, or with tags, fused parts or gaps limits assumed): as the sequence (P00740 other isoform, or with tags, fused parts or gaps R333A R333A limits assumed) above, with A333R counted along it
Procedure: as §1, §2

FIX L337A with C-terminal His-tag, sequence (P00740 other isoform, or with tags, fused parts or gaps L337A L337A limits assumed): as the sequence (P00740 other isoform, or with tags, fused parts or gaps R333A R333A limits assumed) above, with A333R, L337A counted along it

Binding (%) relative to wild-type FIX [1]: 38%
Binding (%) relative to wild-type FIX [2]: 55%
Binding (%) relative to wild-type FIX [3]: 0%
Binding (%) relative to wild-type FIX [4]: 41%
Binding (%) relative to wild-type FIX [5]: 101%
Binding (%) relative to wild-type FIX [6]: 43%
Binding (%) relative to wild-type FIX [7]: 89%
Binding (%) relative to wild-type FIX [8]: 3%
Binding (%) relative to wild-type FIX [9]: 46%
Binding (%) relative to wild-type FIX [10]: 18%
Binding (%) relative to wild-type FIX [11]: 92%
Binding (%) relative to wild-type FIX [12]: 38%
Binding (%) relative to wild-type FIX [13]: 16%
Binding (%) relative to wild-type FIX [14]: 41%
Binding (%) relative to wild-type FIX [15]: 62%
Binding (%) relative to wild-type FIX [16]: 58%
Stimulation Index, FXa generation assay, 3600 nM OA antibody [17]: 10600 fold
Binding (%) relative to wild-type FIX [18]: 100%
B1: one-armed (OA) mAb01-9994 (antibody, V domains shown)
VH: EVQLVESGGGLVQPGRSLRLSCAASGFTFHDYAMHWVRQVPGKGLEWVSGISWKGDIGGYVDSVKGRFTISRDNEKNSLYLQMNSLRAEDTALYYCVKSYGSGSFYNAFDSWGQGTLVTVSS
VL: DIQMTQSPSTLSASVGDRVTITCRASQSISSWLAWYQQKPGKAPKFLIYKASRLDRGTPSRFSGSGSGTEFSLTISSLQPDDFATYYCLEYSSYIRTFGQGTKVEIK
notes: also called OA variant of mAb01-9994

Binding (%) relative to wild-type FIX [1]: 61%
Binding (%) relative to wild-type FIX [2]: 73%
Binding (%) relative to wild-type FIX [3]: 8%
Binding (%) relative to wild-type FIX [4]: 59%
Binding (%) relative to wild-type FIX [5]: 93%
Binding (%) relative to wild-type FIX [6]: 64%
Binding (%) relative to wild-type FIX [7]: 94%
Binding (%) relative to wild-type FIX [8]: 10%
Binding (%) relative to wild-type FIX [9]: 66%
Binding (%) relative to wild-type FIX [10]: 30%
Binding (%) relative to wild-type FIX [11]: 100%
Binding (%) relative to wild-type FIX [12]: 60%
Binding (%) relative to wild-type FIX [13]: 29%
Binding (%) relative to wild-type FIX [14]: 59%
Binding (%) relative to wild-type FIX [15]: 84%
Binding (%) relative to wild-type FIX [16]: 86%
Stimulation Index, FXa generation assay, 2400 nM OA antibody [17]: 13700 fold
Binding (%) relative to wild-type FIX [18]: 100%
B2: one-armed (OA) mAb01-9985 (antibody, V domains shown)
VH: B1 VH with K54R, D62K, E75A
VL: B1 VL with R53K, D55E
notes: also called OA variant of mAb01-9985
